From US20170267778A1 (ADC THERPEUTICS S A, published 2017)

B1: Ab2 (antibody, V domains shown)
VH: EVQLVQSGAEVKKPGESLKISCKISGYIFTDHAIHWVRQMPGKGLEWMGHFSPGNTDIKYNDKFKGQVTLSVDRSINTAYLQWSSLKASDTAIYFCKTSTFFFDYWGQGTRVTVSS
VL: DIVMTQSPDSLAVSLGERATINCKSSQSLLNSGDQKNYLTWYQQKPGQPPKLLIYWASTRESGVPDRFSGSGSGTDFTLTISSLQAEDVAVYYCQNDYSYPLTFGQGTKVEIK
notes: Expressed as human IgG1/kappa from pFUSE-CHIg-hG1 and pFUSE2-CLIg-hk vectors; also called 5E5RHB10 / 5E5RKA
B2: Ab3 (antibody, V domains shown)
VH: EVQLVESGAEVKKPGASVEVSCQASGYTFTDHAIHWVRQAPGQGLEWMGHFSPGNTDIKYNDKFKGRVTMTVDRSINTAYMELRRLRSDDTAVYYCKTSTFFFDYWGQGTMVTVSS
VL: B1 VL
notes: Expressed as human IgG1/kappa from pFUSE-CHIg-hG1 and pFUSE2-CLIg-hk vectors; also called 5E5RHC9 / 5E5RKA
B3: Ab4 (antibody, human IgG1, V domains shown)
VH: QVQLVQSGAEVKKTGSSVKVSCKASGYTFTDHAIHWVRQAPGQALEWMGHFSPGNTDIKYNDKFKGRVTLTVDRSMSTAYMELSSLRSEDTAMYYCKTSTFFFDYWGQGTMVTVSS
VL: DIVMTQSPLSLPVTPGEPASISCKSSQSLLNSGDQKNYLTWYLQKPGQSPQLLIYWASTRESGVPDRFSGSGSGTDFTLKISRVEAEDVGVYYCQNDYSYPLTFGGGTKVEIK
notes: Expressed as human IgG1/kappa from pFUSE-CHIg-hG1 and pFUSE2-CLIg-hk vectors; also called 5E5RHA8 / 5E5RKB
B4: Ab1 (antibody, V domains shown)
VH: B3 VH
VL: B1 VL
notes: Expressed as human IgG1/kappa from pFUSE-CHIg-hG1 and pFUSE2-CLIg-hk vectors; also called 5E5RHA8 / 5E5RKA
B5: Ab5 (antibody, human IgG1, V domains shown)
VH: B1 VH
VL: B3 VL
notes: Expressed as human IgG1/kappa from pFUSE-CHIg-hG1 and pFUSE2-CLIg-hk vectors; also called 5E5RHB10 / 5E5RKB
B6: Ab6 (antibody, human IgG1, V domains shown)
VH: B2 VH
VL: B3 VL
notes: Expressed as human IgG1/kappa from pFUSE-CHIg-hG1 and pFUSE2-CLIg-hk vectors; also called 5E5RHC9 / 5E5RKB
B7: Mouse 5E5 (antibody, V domains shown)
VH: QVQLQQSDAELVKPGSSVKISCKASGYTFTDHAIHWVKQKPEQGLEWIGHFSPGNTDIKYNDKFKGKATLTVDRSSSTAYMQLNSLTSEDSAVYFCKTSTFFFDYWGQGTTLTVSS
VL: DIVMTQSPSSLTVTAGEKVTMICKSSQSLLNSGDQKNYLTWYQQKPGQPPKLLIFWASTRESGVPDRFTGSGSGTDFTLTISSVQAEDLAVYYCQNDYSYPLTFGAGTKLELK
notes: V regions were subcloned into pFUSE-CHIg-hG1 (human IgG1) and pFUSE2-CLIg-hk (human kappa) vectors and expressed in HEK293 cells; also called mouse 5E5 antibody; 5E5VH/5E5VK

Molecular target: T1, Tn-MUC1 on ZR-75-1 cells (human, UniProt P15941 24-1255, Tn glycoform (GalNAcα1-O-Ser/Thr) as expressed by the cells)
T1 construct: whole, on cells; also called ZR-75-1 cell line, which expresses Tn-MUC1; Tn-MUC1(+ve) cell line ZR75-1
Experiment: flow cytometry on ZR-75-1 cells (protocol 6)
Method: Exponentially growing cells are suspended by incubation with cell dissociation buffer enzyme-free, Hanks-based (Gibco 13150-016) following the manufacturer's instructions. A cell count/viability is done on a dilution of 10 ul cells+Trypan Blue, 10 ul, with a haemocytomer. The suspension is centrifuged and the cell pellet re-suspended in binding buffer at 3×10̂6 per ml. If significant levels of aggregates are present in the cell count, the suspension is filtered to remove aggregates. The cell suspension is dispensed (50 ul/well) in 96 well U-bottom plates and cooled on ice for 10 minutes. Primary antibody (50 ul/well) diluted in binding buffer (typically 1 ug per ml or less) is added to each well and incubated at 4° C. for 1 hour. The microplate is centrifuged 5 min at 300-400 g at 4° C., flicked to remove the supernatant and then the cell pellet re-suspended in 200 uL of wash buffer (PBS, 0.1% sodium azide). Centrifugation and re-suspension are done 4 times in all. After the last centrifugation, cells are re-suspended in 50 uL of binding buffer containing the biotin labelled conjugate 1:250 (kept at −20 C: Biotin-SP-AffiniPure F(ab′)2 Fragment Goat antihuman IgG (H+L); Jackson 109-066-088). Cells are incubated for 1 hour at 4 C, then washed 4 times as before. Cells are resuspended in 50 ul of binding buffer containing Streptavidin, Alexa Fluor® 488 conjugate (Life Technologies s11223) diluted 1:250 and Fixable Viability Dye eFluor@780 (eBioscience 65-0865) diluted 1:2000, The cells are incubated at 4° C. for 1 hour and then washed 3 times, as above. Cells are then re-suspended in PBS if reading immediately or fixed in 100 ul of paraformaldehyde (2% (w/v) in PBS) and analysed with by flow cytometer (Accuri C6), gating on live cells which have a lower Fixable Viability Dye MFI compared to dead cells.
IgG binding potency to Tn-MUC1 was measured as per protocol 4 and binding to the ZR-75-1 cell line, which expresses Tn-MUC1, was measured as per protocol 6.

T1 sequence (P15941 24-1255): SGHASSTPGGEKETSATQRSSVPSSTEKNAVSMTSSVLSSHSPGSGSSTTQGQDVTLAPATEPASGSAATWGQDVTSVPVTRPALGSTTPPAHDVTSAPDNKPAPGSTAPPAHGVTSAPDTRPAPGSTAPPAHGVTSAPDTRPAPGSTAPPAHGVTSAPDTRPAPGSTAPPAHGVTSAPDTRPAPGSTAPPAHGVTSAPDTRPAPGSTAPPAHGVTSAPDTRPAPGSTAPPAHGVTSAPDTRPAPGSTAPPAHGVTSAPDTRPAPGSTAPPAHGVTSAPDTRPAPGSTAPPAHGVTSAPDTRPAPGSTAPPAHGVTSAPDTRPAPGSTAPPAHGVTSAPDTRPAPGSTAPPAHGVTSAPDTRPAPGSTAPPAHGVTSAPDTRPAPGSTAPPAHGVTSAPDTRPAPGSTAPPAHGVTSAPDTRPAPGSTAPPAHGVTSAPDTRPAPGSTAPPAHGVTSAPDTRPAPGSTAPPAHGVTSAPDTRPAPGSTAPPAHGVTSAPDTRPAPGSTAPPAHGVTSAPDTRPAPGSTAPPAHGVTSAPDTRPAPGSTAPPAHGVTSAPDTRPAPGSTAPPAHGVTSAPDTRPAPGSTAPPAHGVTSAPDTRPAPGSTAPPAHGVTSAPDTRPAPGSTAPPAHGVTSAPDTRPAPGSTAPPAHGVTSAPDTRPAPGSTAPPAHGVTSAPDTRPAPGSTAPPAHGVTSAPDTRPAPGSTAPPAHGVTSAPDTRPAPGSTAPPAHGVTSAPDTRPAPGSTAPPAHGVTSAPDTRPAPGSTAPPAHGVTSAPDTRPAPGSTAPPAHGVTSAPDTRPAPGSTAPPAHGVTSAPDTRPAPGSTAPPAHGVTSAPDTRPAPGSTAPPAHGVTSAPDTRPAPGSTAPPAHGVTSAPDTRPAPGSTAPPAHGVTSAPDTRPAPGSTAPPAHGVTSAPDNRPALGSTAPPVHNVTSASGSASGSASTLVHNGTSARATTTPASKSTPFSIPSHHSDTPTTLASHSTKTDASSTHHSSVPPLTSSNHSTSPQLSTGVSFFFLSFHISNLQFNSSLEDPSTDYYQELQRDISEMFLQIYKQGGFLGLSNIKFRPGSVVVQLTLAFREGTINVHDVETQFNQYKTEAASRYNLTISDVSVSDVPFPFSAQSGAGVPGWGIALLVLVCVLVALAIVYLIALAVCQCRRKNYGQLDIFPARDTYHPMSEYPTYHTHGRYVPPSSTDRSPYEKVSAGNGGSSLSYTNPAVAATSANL

| Binder | EC50 [µg/mL] |
| --- | --- |
| B1 | 0.0168 |
| B2 | 0.0268 |
| B3 | 0.0423 |
| B4 | 0.00986 |
| B5 | 0.0184 |
| B6 | 0.0413 |
| B7 | 0.0283 |
